Source: publication PMC2633621 (Nature chemical biology, 2008)

T1: I211R mutant Kvβ2 expressed in complex with the T1 domain (rat, UniProt P62483 36-367, I211R)
T1 sequence (looked up): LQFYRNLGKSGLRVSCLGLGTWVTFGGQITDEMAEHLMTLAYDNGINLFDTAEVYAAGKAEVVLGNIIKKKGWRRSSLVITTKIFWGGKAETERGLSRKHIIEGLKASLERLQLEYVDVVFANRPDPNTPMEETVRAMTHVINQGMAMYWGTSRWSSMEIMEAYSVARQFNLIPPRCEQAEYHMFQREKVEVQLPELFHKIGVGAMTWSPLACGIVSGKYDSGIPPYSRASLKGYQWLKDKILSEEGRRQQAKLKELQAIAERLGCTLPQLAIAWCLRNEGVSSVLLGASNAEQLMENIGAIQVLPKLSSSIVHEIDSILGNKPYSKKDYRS


Columns and labels:
[1] = molecular target: T1, I211R mutant Kvβ2 expressed in complex …; assay: pull-down
crystal structure = molecular target: the molecule itself; assay: crystal structure

| Binder | binding result (crystal structure) | further results |
| --- | --- | --- |
| T1 domain of Kv1.1 (residues 2 to 135), fusion with N-terminal 6-histidine tag and SUMO protein (domain or fragment, rat, UniProt P10499 2-135, looked up) TVMSGENADEASAAPGHPQDGSYPRQADHDDHECCERVVINISGLRFETQLKTLAQFPNTLLGNPKKRMRYFDPLRNEYFFDRNRPSFDAILYYYQSGGRLRRPVNVPLDMFSEEIKFYELGEEAMEKFREDEG | – | binding result [1]: binds |
| Kvβ2 conserved core (residues 36 to 367), purified and co-crystallized with cortisone (domain or fragment, rat, UniProt P62483 36-367, looked up) LQFYRNLGKSGLRVSCLGLGTWVTFGGQITDEMAEHLMTLAYDNGINLFDTAEVYAAGKAEVVLGNIIKKKGWRRSSLVITTKIFWGGKAETERGLSRKHIIEGLKASLERLQLEYVDVVFANRPDPNTPMEETVRAMTHVINQGMAMYWGTSRWSSMEIMEAYSVARQFNLIPPICEQAEYHMFQREKVEVQLPELFHKIGVGAMTWSPLACGIVSGKYDSGIPPYSRASLKGYQWLKDKILSEEGRRQQAKLKELQAIAERLGCTLPQLAIAWCLRNEGVSSVLLGASNAEQLMENIGAIQVLPKLSSSIVHEIDSILGNKPYSKKDYRS | – | stoichiometry N (crystal structure): 4 |
| I211R mutant Kvβ2, co-crystallized with 2 mM cortisone (domain or fragment, rat, UniProt P62483 36-367, looked up) LQFYRNLGKSGLRVSCLGLGTWVTFGGQITDEMAEHLMTLAYDNGINLFDTAEVYAAGKAEVVLGNIIKKKGWRRSSLVITTKIFWGGKAETERGLSRKHIIEGLKASLERLQLEYVDVVFANRPDPNTPMEETVRAMTHVINQGMAMYWGTSRWSSMEIMEAYSVARQFNLIPPRCEQAEYHMFQREKVEVQLPELFHKIGVGAMTWSPLACGIVSGKYDSGIPPYSRASLKGYQWLKDKILSEEGRRQQAKLKELQAIAERLGCTLPQLAIAWCLRNEGVSSVLLGASNAEQLMENIGAIQVLPKLSSSIVHEIDSILGNKPYSKKDYRS | binds | – |
| W121A mutant Kvβ2, co-crystallized with cortisone (domain or fragment, rat, UniProt P62483 36-367, looked up) LQFYRNLGKSGLRVSCLGLGTWVTFGGQITDEMAEHLMTLAYDNGINLFDTAEVYAAGKAEVVLGNIIKKKGWRRSSLVITTKIFAGGKAETERGLSRKHIIEGLKASLERLQLEYVDVVFANRPDPNTPMEETVRAMTHVINQGMAMYWGTSRWSSMEIMEAYSVARQFNLIPPICEQAEYHMFQREKVEVQLPELFHKIGVGAMTWSPLACGIVSGKYDSGIPPYSRASLKGYQWLKDKILSEEGRRQQAKLKELQAIAERLGCTLPQLAIAWCLRNEGVSSVLLGASNAEQLMENIGAIQVLPKLSSSIVHEIDSILGNKPYSKKDYRS | binds | – |
